This is an account of results in article PMC9541529 (The Febs Journal, 2022).

First the molecules themselves.
B2: Hsp104 N‐terminal domain (NTD), wild type (domain or fragment)
chain: MNDQTQFTERALTILTLAQKLASDHQHPQLQPIHILAAFIETPEDGSVPYLQNLIEKGRYDYDLFKKVVNRNLVRIPQQQPAPAEITPSYALGKVLQDAAKIQKQQKDSFIAQDHILFALFNDSSIQQIFKEAQVDIEAIKQQALELRGNTR

Experiment [1] addresses B2. Description: NMR titration.
Experiment [2] has as its target T1, Sup35 NM prion protein (NM domains) (S. cerevisiae, UniProt P05453 1-253).
T1 sequence: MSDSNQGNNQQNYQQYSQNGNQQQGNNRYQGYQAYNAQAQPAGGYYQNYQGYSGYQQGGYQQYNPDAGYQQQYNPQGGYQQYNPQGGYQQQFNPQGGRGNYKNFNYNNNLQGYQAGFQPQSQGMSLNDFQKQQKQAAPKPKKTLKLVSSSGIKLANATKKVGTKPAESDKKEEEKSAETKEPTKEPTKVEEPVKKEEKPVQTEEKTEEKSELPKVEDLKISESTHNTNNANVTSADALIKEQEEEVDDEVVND
Description: NMR titration.

The next experiment has as its target tau 2N4R (human, UniProt P10636-8 1-441). Description: co-sedimentation.

B1: α‐lactalbumin (natural protein)
chain: EQLTKCEVFRELKDLKGYGGVSLPEWVCTTFHTSGYDTQAIVQNNDSTEYGLFQINNKIWCKDDQNPHSSNICNISCDKFLDDDLTDDIMCVKKILDKVGINYWLAHKALCSEKLDQWLCEKL
Turning to B1, the binding result in experiment [1] is listed as “binds”. Take B2: the binding result (in experiment [2]; with tau 2N4R) was “binds” throughout.

B3: PhoA^349–471 (unfolded PhoA protein fragment, residues 349–471) (domain or fragment)
chain: DKQDHAANPCGQIGETVDLDEAVQRALEFAKKEGNTLVIVTADHAHASQIVAPDTKAPGLTQALNTKDGAVMVMSYGNSEEDSQEHTGSQLRIAAYGPHAANVVGLTDQTDLFYTMKAALGLK
As to B3, the binding result in experiment [1] is given as “binds”.
